Reference: patent publication US20030135880A1, “Compositions and methods for halogenation reactions” (priority 2002, published 2003)
Like-named read-outs stand apart in the source and are kept apart here.

How the values were obtained:
PrnA [1] = molecular target: T1, PrnA (Pseudomonas fluorescens, UniProt P95480); assay type: biochemical; design: made in house; host or cells: Pseudomonas fluorescens BL915deltaORF1-4 with plasmid pPEH14 (prnA); details: 20 microliter PrnA, 20 microliter electron transferase, 20.5 hours, room temperature, triplicate
T1 sequence (P95480 whole entry): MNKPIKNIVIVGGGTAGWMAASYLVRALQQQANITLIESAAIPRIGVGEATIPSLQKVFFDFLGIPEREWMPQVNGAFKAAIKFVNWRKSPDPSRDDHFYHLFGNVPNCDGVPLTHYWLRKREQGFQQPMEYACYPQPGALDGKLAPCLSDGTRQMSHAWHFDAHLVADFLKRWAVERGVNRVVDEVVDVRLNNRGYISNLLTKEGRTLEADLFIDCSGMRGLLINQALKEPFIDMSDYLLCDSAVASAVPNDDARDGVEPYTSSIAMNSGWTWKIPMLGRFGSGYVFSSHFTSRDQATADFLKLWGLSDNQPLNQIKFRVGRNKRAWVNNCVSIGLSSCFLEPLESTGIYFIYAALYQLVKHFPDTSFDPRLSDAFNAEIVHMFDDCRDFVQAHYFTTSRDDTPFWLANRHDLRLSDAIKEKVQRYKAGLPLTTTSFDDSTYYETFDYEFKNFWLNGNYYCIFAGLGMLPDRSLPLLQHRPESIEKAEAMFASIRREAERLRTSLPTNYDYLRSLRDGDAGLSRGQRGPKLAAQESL
Method: Protein concentration or the preparation is 0.36 mg/ml.
Either a NADH dependent mixture or a NADPH mixture is used as indicated below. An NADH-dependent assay mixture is prepared by adding 12 mg of NADH to 4.5 ml of above described assay mixture. A NADPH-dependent assay mixture is prepared by adding 3 mg NADPH to 1 ml of the above described assay mixture.
The reactions 1-7, described below, are set up in polypropylene tubes in triplicate. After mixing PrnA, the indicated assay mixture and electron transferase, samples are vortexed, then mixed by inversion at room temperature. […] The HPLC analysis is by Method Set PrnA1 (described below), the injection volume is 50 microliter, and data are collected for the first 6 minutes.
Standards are prepared by mixing 5 or 10 microliter 7-Cl-Trp (1 mM) with sufficient 50 mM HEPES, pH 7.5 to bring the final volume to 200 microliter. D-Trp is eluted at ˜2 min and 7-Cl-trp is eluted at 4.3 min, as indicated by the elution of the authentic D-Trp and 7-Cl-Trp. The quantity of 7-Cl-trp is determined by comparison to a standard curve. Reported activities are the net increase in 7-Cl-Trp after addition of the electron transferase.
A Waters Alliance HPLC system with photodiode array detector is used. The Waters Alliance HPLC is equipped with a 4.6×50 mm column packed with C18-Silica, particle size 3 micrometer. A gradient elution method designated here as PrnA1 is used. Flow rates are 1 ml/min throughout and absorbance data are collected from 210 to 400 nm with a resolution of 1.2 nm and a sampling rate of 1/s. The system as pre-equilibrated with an 85:15 mixture of water:methanol. After injection of the sample the column is developed with a 6 min gradient from the starting conditions to a 40:60 water:methanol mixture. Then from 6.0 to 7.0 min the concentration of methanol is increased to 100% in a linear gradient. The column is washed for 1 min with 100% methanol, then re-equilibrated. D-Trp eluted at ˜2 min and 7-Cl-trp eluted at 4.3 min, as indicated by the elution of authentic D-Trp and 7-Cl-Trp.

PrnA [2] = molecular target: T1, PrnA; test: Activation of PrnA by electron transferases, 2 h assay (Example 2); assay type: biochemical; design: made in house; host or cells: Pseudomonas fluorescens BL915deltaORF1-4 with plasmid pPEH14 (prnA); details: 20 microliter PrnA, 50 microliter NADH, 50 microliter electron transferase, room temperature
Method: The following components are used in examples 1-4 below: PrnA (described for Example 1 above) at 0.36 mg/ml, Assay Mixture containing HEPES (100 mM), glucose-6-phosphate, disodium salt (50 mM), D-Trp (5 mM), NaCl (5 mM). Aspergillus niger catalase (39 U/ml), bovine erythrocyte superoxide dismutase (15 U/ml), Leuconostoc mesenteroides glucose-6-phosphate dehydrogenase (10 U/ml). NADH-(3 mg/ml) NADPH (3 mg/ml).
Each assay contains the assay mixture, either NADH (for samples containing Fre and the NAD(P)H:FMN reductase) or NADPH (for samples containing FNR or FNR and Fd), PrnA and the indicated electron transferase. Negative control samples are incubated in parallel; these substituted buffer for PrnA. Quantification standards are prepared by diluting 0,1, 2 or 5 microliter of 7-Cl-Trp standard (1 mM) in 100 microliter Assay Mixture, 50 microliter NADH, 20 microliter PrnA and 50 microliter buffer; the tubes were heated to 100 C. prior to addition of PrnA, then heated an additional 2 min. Further processing is in parallel with the enzymatic reactions. All samples are mixed for 2 h at room temperature. Reactions are stopped and samples processed as described above in Example 1, including using the HPLC Analytical method PrnA1 as described in Example 1.

PrnC = molecular target: T2, PrnC (Pseudomonas fluorescens, UniProt P95482); test: In vitro halogenation with PrnC: chlorination of MDA to APRN (Example 3); assay type: biochemical, P. fluorescens; details: Extract #2 (PrnC depleted of P2) plus 20 microliter electron transferase, NADH, overnight
T2 construct: made in house; host or cells: P. fluorescens (pPEH/prnC/134Δprn), plasmid pPEH-PrnC with tac promoter
T2 sequence (P95482 whole entry, looked up): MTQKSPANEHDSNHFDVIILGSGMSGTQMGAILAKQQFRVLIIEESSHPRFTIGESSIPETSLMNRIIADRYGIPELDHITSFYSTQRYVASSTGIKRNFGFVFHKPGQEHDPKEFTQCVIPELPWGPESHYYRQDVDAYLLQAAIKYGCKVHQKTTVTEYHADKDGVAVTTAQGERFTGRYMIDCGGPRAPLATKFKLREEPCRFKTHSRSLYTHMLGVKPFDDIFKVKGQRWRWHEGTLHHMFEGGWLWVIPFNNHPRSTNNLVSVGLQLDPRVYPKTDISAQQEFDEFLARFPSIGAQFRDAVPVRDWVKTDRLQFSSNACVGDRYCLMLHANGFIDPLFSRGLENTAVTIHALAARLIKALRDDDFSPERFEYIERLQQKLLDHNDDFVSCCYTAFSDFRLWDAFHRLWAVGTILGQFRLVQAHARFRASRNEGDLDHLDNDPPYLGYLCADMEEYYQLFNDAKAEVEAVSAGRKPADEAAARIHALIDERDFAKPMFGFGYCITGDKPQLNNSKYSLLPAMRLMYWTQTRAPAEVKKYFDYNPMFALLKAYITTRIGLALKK
Method: Fre, ferrodoxin NADP reductase, ferrodoxin and NADPH FMN-reductase are tested for the ability to activate P. fluorescens PrnC that was depleted of endogenous electron transferase (P2) as described below. PrnC catalyzes chlorination of monodechloroaminopyrrolnitrin (MDA) to yield aminopyrrolnitrin (APRN).
The following materials are prepared for use in assays described below. Buffer 100 mM Tris/Cl, 1 mM EDTA. pH 7.5. Monodechloroaminopyrrolnitrin (MDA) 74.2 mM is prepared by culture of Pseudomonas fluorescens expressing PrnA and PrnB as described in (Kirner et al,1998) which is herein incorporated by reference in its entirety. The assay mix comprises FAD (5 μM) and MDA (742 μM) in buffer. NADH is dissolved in buffer at a concentration of 6 mg/ml. or NADPH is dissolved in buffer at a concentration of 6 mg/ml. Extract #1 is a crude extract in buffer containing PrnC and the endogenous electron transferase P2 described above in example 1. […]
The assays described below are run as follows; Extract #2 is mixed with the indicated electron transferase, assay mix and either NADH or NADPH as indicated. The native activity of PrnC prior to removal of the P2 activity is determined by a parallel sample in which extract #1 is mixed with assay mix and NADH. […] Samples are analyzed by PrnC_Iso method described below. The 220 nm absorbance chromatogram is analyzed and integrated. PrnC activity is expressed as 100 times the ratio of the APRN peak area to the sum of the peak areas of APRN and MDA. Assuming equal extinction coefficients at 220 nm the calculated ratio is equivalent to the net % conversion of MDA to APRN by halogenation.
HPLC Analytical method PrnC_Iso The HPLC instrument used is a Waters Alliance HPLC system with photodiode array detector and is equipped with a 4.6×50 mm column packed with C18-Silica, particle size 3 micrometer. […] Absorbance data are collected from 210 to 400 nm with a resolution of 2.4 nm and a sampling rate of 5/s. […]

B1: NADPH-cyt-P450 reductase: Rabbit liver NADPH-cyt-P450 reductase purchased from Sigma Chemical Co. (protein, listed as Oryctolagus cuniculus)
chain: LINMADSHGDTGATMPEAAAQEASVFSMTDVVLFSLIVGLITYWFLFRKKKEEVPEFTKIQAPTSSSVKESSFVEKMKKTGRNIVVFYGSQTGTAEEFANRLSKDAHRYGMRGMAADPEEYDLADLSSLPEINNALAVFCMATYGEGDPTDNAQDFYDWLQETDVDLSGVKYAVFGLGNKTYEHFNAMGKYVDQRLEQLGAQRIFELGMGDDDANLEEDFITWREQFWPAVCEHFGVEATGEESSIRQYELVLHTDIDVAKVYQGEMGRLKSYENQKPPFDAKNPFLATVTTNRKLNQGTERHLMHLELDISDSKIRYESGDHVAVYPANDSALVNQLGEILGADLDVVMSLNNLDEESNKKHPFPCPTSYRTALTYYLDITNPPRTNVLYELAQYAADPAEQEQLRKMASSSGEGKELYLSWVVEARRHILAILQDYPSLRPPIDHLCELLPRLQARYYSIASSSKVHPNSVHICAVAVEYETKAGRLNKGVATSWLRAKEPAGENGGRALVPMFVRKSQFRLPFKATTPVIMVGPGTGVAPFIGFIQERAWLRQQGKEVGETLLYYGCRRAAEDYLYREELAGFQKDGTLSQLNVAFSREQAQKVYVQHLLRRDKEHLWRLIHEGGAHIYVCGDARNMARDVQNTFYDIVAELGAMEHAQAVDYVKKLMTKGRYSLDVWS
net product formation 7-Cl-Trp (PrnA [1]; NADPH mixture): 3.35 ± 0.23 nmol

B2: Fre: E. coli flavin reductase (SEQ ID NO: 19), purified electron transferase (protein, listed as Escherichia coli)
chain: MTTLSCKVTSVEAITDTVYRVRIVPDAAFSFRAGQYLMVVMDERDKRPFSMASTPDEKGFIELHIGASEINLYAKAVMDRILKDHQIVVDIPHGEAWLRDDEERPMILIAGGTGFSYARSILLTALARNPNRDITIYWGGREEQHLYDLCELEALSLKHPGLQVVPVVEQPEAGWRGRTGTVLTAVLQDHGTLAEHDIYIAGRFEMAKIARDLFCSERNAREDRLFGDAFAFI
Net 7-Cl-Trp produced (PrnA [2]): 8.44 nmol
net product formation 7-Cl-Trp (PrnA [1]; NADH mixture): 21.46 ± 1.02 nmol
PrnC activity, conversion of MDA to APRN (PrnC): 51.8%

B3: cytochrome b5 reductase: Recombinant soluble domain of rat hepatic cytochrome b5 reductase (protein, listed as Rattus norvegicus)
chain: MGAQLSTLSRVVLSPVWFVYSLFMKLFQRSSPAITLENPDIKYPLRLIDKEIISHDTRRFRFALPSPQHILGLPIGQHIYLSTRIDGNLVIRPYTPVSSDDDKGLVDLVVKVYFKDTHPKFPAGGKMSQYLENMNIGDTIEFRGPNGLLVYQGKGKFAIRADKKSNPVVRTVKSVGMIAGGTGITPMLQVIRAVLKDPNDHTVCYLLFANQSEKDILLRPELEELRNEHSSRFKLWYTVDKAPDAWDYSQGFVNEEMIRDHLPPPGEETLILMCGPPPMIQFACLPNLERVGHPKERCFTF
net product formation 7-Cl-Trp (PrnA [1]; NADH mixture): 0.31 ± 0.11 nmol

B4: FNR: Spinach ferredoxin NADP reductase (protein, UniProt P00455 56-369, looked up)
Ferredoxin--NADP reductase, …: QIASDVEAPPPAPAKVEKHSKKMEEGITVNKFKPKTPYVGRCLLNTKITGDDAPGETWHMVFSHEGEIPYREGQSVGVIPDGEDKNGKPHKLRLYSIASSALGDFGDAKSVSLCVKRLIYTNDAGETIKGVCSNFLCDLKPGAEVKLTGPVGKEMLMPKDPNATIIMLGTGTGIAPFRSFLWKMFFEKHDDYKFNGLAWLFLGVPTSSSLLYKEEFEKMKEKAPDNFRLDFAVSREQTNEKGEKMYIQTRMAQYAVELWEMLKKDNTYFYMCGLKGMEKGIDDIMVSLAAAEGIDWIEYKRQLKKAEQWNVEVY
Net 7-Cl-Trp produced (PrnA [2]): 4.22 nmol
PrnC activity, conversion of MDA to APRN (PrnC): 1.8%

B5: NAD(P)H:FMN reductase: Photobacterium fischeri NAD(P)H:FMN reductase purchased from Roche (protein, listed as Vibrio fischeri)
chain: MPINCKVKSIEPLACNTFRILLHPEQPVAFKAGQYLTVVMGEKDKRPFSIASSPCRHEGEIELHIGAAEHNAYAGEVVESMKSALETGGDILIDAPHGEAWIREDSDRSMLLIAGGTGFSYVRSILDHCISQQIQKPIYLYWGGRDECQLYAKAELESIAQAHSHITFVPVVEKSEGWTGKTGNVLEAVKADFNSLADMDIYIAGRFEMAGAAREQFTTEKQAKKEQLFGDAFAFI
Net 7-Cl-Trp produced (PrnA [2]): 0.11 nmol
PrnC activity, conversion of MDA to APRN (PrnC): 4.0%
